The record followed here is patent US20230365662A1.

Numbering of substitutions follows the chain as printed. Names may count otherwise. “And” between values parts separate entries of the source, which are not always exact repeats. Equal values may be shown once.

In the test the target is HRgpA-6H (Porphyromonas gingivalis) (UniProt P28784). Put plainly: ELISA, FASEBA Fab on coated HRgpA-6H.
Sequence of UniProt P28784 (P28784 228-991): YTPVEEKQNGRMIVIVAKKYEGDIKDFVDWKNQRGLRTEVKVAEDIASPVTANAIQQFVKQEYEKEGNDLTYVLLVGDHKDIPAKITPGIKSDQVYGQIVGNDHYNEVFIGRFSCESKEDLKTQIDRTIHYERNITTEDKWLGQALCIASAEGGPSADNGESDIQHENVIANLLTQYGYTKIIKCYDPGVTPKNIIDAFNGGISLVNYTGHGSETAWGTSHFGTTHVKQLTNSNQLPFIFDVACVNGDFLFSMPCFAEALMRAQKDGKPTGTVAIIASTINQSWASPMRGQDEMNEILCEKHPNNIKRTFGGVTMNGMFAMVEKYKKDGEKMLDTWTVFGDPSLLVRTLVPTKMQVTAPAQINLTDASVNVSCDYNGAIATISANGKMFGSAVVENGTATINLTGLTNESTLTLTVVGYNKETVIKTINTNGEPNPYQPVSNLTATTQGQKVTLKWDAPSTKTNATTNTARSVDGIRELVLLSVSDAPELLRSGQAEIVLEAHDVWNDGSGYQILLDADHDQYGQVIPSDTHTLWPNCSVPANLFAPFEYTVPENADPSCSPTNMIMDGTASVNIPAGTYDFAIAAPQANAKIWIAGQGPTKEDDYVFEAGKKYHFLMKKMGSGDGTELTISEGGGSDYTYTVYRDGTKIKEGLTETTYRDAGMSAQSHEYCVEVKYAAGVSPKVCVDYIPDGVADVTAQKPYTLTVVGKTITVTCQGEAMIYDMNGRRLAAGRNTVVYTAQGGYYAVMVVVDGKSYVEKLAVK

B1: KB001 mouse Fab VL S27W (Fab, V domains shown)
VH: EVQLKQSGPGLVAPSQSLSITCTVSGFSLSIYSVHWVRQPPGKGLEWLGMIWGGGSSDYNSALKSRLSISKDNSKSQVFLKMNSLQTDDTAMYYCARNGNFYAMDYWGQGTSVTVSS
VL: QIVLTQSPAIMSASLGERVTMTCTASWSVSSSFLHWYQQKPGSSPQLWIYSTSNLASGVPARFSGSGSGTSYSLTISSMEAEDAATYYCHQYHHSPYIYTFGGGTKLEIK
Take B1: the OD450nm stood at 0.601 and the Ratio OD(Variant)/OD(WT) worked out at 0.801.

B2: KB001 mouse Fab VL S32Y (Fab, V domains shown)
VH: B1 VH
VL: B1 VL with W27S, S32Y
Take B2: the OD450nm turned out to be 0.753 and the Ratio OD(Variant)/OD(WT) was determined as 0.891.

B3: KB001 mouse Fab VL S32G (Fab, V domains shown)
VH: B1 VH
VL: B1 VL with W27S, S32G
Take B3: the OD450nm worked out at 0.759 and the Ratio OD(Variant)/OD(WT) amounted to 0.898.

B4: KB001 mouse Fab VL S31D (Fab, V domains shown)
VH: B1 VH
VL: B1 VL with W27S, S31D
For the molecule B4, the OD450nm came to 0.762 and the Ratio OD(Variant)/OD(WT) is 0.902.

B5: KB001 mouse Fab VL S28T/S12R (Fab, V domains shown)
VH: B1 VH
VL: B1 VL with S12R, W27S, S28T
Consider B5, for which the OD450nm was 0.747 and the Ratio OD(Variant)/OD(WT) was found to be 0.995.

B6: KB001 mouse Fab VL S28H (Fab, V domains shown)
VH: B1 VH
VL: B1 VL with W27S, S28H
Consider B6, for which the OD450nm came out at 0.719 and the Ratio OD(Variant)/OD(WT) is 0.958.

B7: KB001 mouse Fab VL S30D (Fab, V domains shown)
VH: B1 VH
VL: B1 VL with W27S, S30D
As for B7, the OD450nm was 0.702 and 0.723; the Ratio OD(Variant)/OD(WT) was 0.814 and 0.839.

B8: KB001 mouse Fab VL S28D (Fab, V domains shown)
VH: B1 VH
VL: B1 VL with W27S, S28D
As to B8, the OD450nm is 0.745 and 0.722; the Ratio OD(Variant)/OD(WT) was 0.993 and 0.962.

B9: KB001 mouse Fab VL S28M (Fab, V domains shown)
VH: B1 VH
VL: B1 VL with W27S, S28M
For the molecule B9, the OD450nm was 0.706 and 0.675; the Ratio OD(Variant)/OD(WT) is 0.941 and 0.899.

B10: KB001 mouse Fab VL S30K (Fab, V domains shown)
VH: B1 VH
VL: B1 VL with W27S, S30K
In the case of B10, the OD450nm amounted to 0.77 and the Ratio OD(Variant)/OD(WT) was 0.893.

B11: KB001 mouse Fab VL V29I (Fab, V domains shown)
VH: B1 VH
VL: B1 VL with W27S, V29I
Consider B11, for which the OD450nm amounted to 0.853 and the Ratio OD(Variant)/OD(WT) is 0.99.

B12: KB001 mouse Fab VL S32P (Fab, V domains shown)
VH: B1 VH
VL: B1 VL with W27S, S32P
As for B12, the OD450nm is 0.744 and the Ratio OD(Variant)/OD(WT) turned out to be 0.88.

B13: KB001 mouse Fab VL S30M (Fab, V domains shown)
VH: B1 VH
VL: B1 VL with W27S, S30M
B13: the OD450nm was 0.818 and the Ratio OD(Variant)/OD(WT) is 0.949.

B14: KB001 mouse Fab VL V29L (Fab, V domains shown)
VH: B1 VH
VL: B1 VL with W27S, V29L
On to B14, for which the OD450nm stood at 0.751 and the Ratio OD(Variant)/OD(WT) stood at 0.871.

B15: KB001 mouse Fab VL S30L (Fab, V domains shown)
VH: B1 VH
VL: B1 VL with W27S, S30L
Regarding B15, the OD450nm was found to be 0.813 and the Ratio OD(Variant)/OD(WT) stood at 0.943.

B16: KB001 mouse Fab VL S27M (Fab, V domains shown)
VH: B1 VH
VL: B1 VL with W27M
For the molecule B16, the OD450nm is 0.709 and the Ratio OD(Variant)/OD(WT) was determined as 0.945.

B17: KB001 mouse Fab VL S28N (Fab, V domains shown)
VH: B1 VH
VL: B1 VL with W27S, S28N
In the case of B17, the OD450nm is 0.743 and the Ratio OD(Variant)/OD(WT) was found to be 0.99.

B18: KB001 mouse Fab VL S27K/S68Y (Fab, V domains shown)
VH: B1 VH
VL: B1 VL with W27K, S68Y
As for B18, the OD450nm stood at 0.736 and the Ratio OD(Variant)/OD(WT) worked out at 0.981.

B19: KB001 mouse Fab VL S30T (Fab, V domains shown)
VH: B1 VH
VL: B1 VL with W27S, S30T
On to B19, for which the OD450nm was 0.838 and 0.817; the Ratio OD(Variant)/OD(WT) was 0.972 and 0.948.

B20: KB001 mouse Fab VL S30W (Fab, V domains shown)
VH: B1 VH
VL: B1 VL with W27S, S30W
For the molecule B20, the OD450nm turned out to be 0.823 and the Ratio OD(Variant)/OD(WT) was 0.955.

B21: KB001 mouse Fab VL S30E (Fab, V domains shown)
VH: B1 VH
VL: B1 VL with W27S, S30E
On to B21, for which the OD450nm turned out to be 0.813 and the Ratio OD(Variant)/OD(WT) worked out at 0.943.

B22: KB001 mouse Fab VL S31Q (Fab, V domains shown)
VH: B1 VH
VL: B1 VL with W27S, S31Q
As for B22, the OD450nm was 0.83 and 0.745 and 0.782; the Ratio OD(Variant)/OD(WT) is 0.982 and 0.882 and 0.925.

B23: KB001 mouse Fab VL S30R (Fab, V domains shown)
VH: B1 VH
VL: B1 VL with W27S, S30R
As to B23, the OD450nm was 0.778 and 0.793 and 0.802; the Ratio OD(Variant)/OD(WT) was 0.903 and 0.92 and 0.93.

B24: KB001 mouse Fab VL S32A (Fab, V domains shown)
VH: B1 VH
VL: B1 VL with W27S, S32A
With B24, the OD450nm is 0.748 and 0.805; the Ratio OD(Variant)/OD(WT) is 0.885 and 0.953.

B25: KB001 mouse Fab VL S30I (Fab, V domains shown)
VH: B1 VH
VL: B1 VL with W27S, S30I
For B25, the OD450nm came to 0.86 and the Ratio OD(Variant)/OD(WT) worked out at 0.998.

B26: KB001 mouse Fab VL S30H (Fab, V domains shown)
VH: B1 VH
VL: B1 VL with W27S, S30H
For the molecule B26, the OD450nm is 0.808 and 0.747; the Ratio OD(Variant)/OD(WT) is 0.937 and 0.867.

B27: KB001 mouse Fab VL S31W (Fab, V domains shown)
VH: B1 VH
VL: B1 VL with W27S, S31W
For B27, the OD450nm stood at 0.808 and the Ratio OD(Variant)/OD(WT) came to 0.956.
